Assay results from patent US20230338423A1 (published 2023).
Values belong to the binder of their own block, whether it stands above or below them.

Legend:
V5-tagged mouse Susd2 = target: T1, V5-tagged mouse Susd2 (mouse, UniProt Q9DBX3 23-820); experiment: anti-V5 immunoprecipitation and immunoblot, Susd2-reconstituted Susd2-/- OT-I T cells
T1 construct: Retrovirally expressed in Susd2-/- OT-I T cells and precipitated from RIPA lysates with anti-V5 agarose; also called V5-Susd2; pMIG II-Susd2; not shown: V5 and His tag
T1 sequence: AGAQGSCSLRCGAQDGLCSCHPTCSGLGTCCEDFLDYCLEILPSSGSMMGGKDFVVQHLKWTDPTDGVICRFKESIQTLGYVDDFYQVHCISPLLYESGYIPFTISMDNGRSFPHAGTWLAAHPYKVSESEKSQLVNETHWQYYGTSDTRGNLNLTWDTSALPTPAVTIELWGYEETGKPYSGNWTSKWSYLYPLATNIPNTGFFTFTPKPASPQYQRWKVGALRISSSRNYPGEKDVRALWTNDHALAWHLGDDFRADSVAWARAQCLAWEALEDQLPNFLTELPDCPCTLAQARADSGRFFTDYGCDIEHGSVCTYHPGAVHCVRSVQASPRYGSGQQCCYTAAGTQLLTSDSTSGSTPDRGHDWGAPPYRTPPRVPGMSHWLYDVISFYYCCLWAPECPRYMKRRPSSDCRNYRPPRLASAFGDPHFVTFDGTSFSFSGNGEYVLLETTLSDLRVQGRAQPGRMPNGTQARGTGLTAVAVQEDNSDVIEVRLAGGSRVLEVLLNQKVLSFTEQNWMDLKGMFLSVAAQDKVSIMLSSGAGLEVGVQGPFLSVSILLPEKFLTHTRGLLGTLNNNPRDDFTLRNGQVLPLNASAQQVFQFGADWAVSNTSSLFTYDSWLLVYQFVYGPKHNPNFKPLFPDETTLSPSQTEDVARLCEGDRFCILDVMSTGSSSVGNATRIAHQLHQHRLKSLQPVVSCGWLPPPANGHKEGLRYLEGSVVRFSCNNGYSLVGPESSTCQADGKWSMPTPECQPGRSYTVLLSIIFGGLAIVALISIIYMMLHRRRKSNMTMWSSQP

[1] = target: T2, V5-SUSD2 (human SUSD2, V5-tagged) (human, UniProt Q9UGT4 28-822); experiment: anti-V5 immunoprecipitation and immunoblot, Jurkat T cells
T2 construct: Overexpressed in 293T cells or Jurkat T cells; also called SUSD2^WT; not shown: V5 and His tag
T2 sequence: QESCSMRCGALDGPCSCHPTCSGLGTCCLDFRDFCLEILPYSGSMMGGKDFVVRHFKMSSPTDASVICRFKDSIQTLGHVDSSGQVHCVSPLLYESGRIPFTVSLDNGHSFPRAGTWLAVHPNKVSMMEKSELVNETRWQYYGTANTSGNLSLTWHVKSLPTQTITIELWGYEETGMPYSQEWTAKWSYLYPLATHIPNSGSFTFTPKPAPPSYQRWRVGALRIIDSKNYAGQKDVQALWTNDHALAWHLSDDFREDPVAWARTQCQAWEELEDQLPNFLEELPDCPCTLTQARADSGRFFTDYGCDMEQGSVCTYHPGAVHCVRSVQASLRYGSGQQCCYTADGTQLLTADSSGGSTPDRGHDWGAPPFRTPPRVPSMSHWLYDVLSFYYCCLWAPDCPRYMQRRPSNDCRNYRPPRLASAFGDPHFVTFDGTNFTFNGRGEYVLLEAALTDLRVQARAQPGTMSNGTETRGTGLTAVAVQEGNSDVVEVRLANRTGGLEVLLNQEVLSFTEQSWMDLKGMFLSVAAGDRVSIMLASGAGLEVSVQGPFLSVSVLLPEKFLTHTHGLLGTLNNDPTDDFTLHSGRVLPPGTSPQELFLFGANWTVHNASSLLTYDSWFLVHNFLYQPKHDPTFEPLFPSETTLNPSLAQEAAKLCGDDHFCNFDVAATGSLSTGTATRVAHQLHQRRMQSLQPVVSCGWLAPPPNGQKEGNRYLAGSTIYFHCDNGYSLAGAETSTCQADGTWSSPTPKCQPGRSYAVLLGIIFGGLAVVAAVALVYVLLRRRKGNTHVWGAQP

- binding result (V5-tagged mouse Susd2): no binding
B1: mouse IL-2Rβ (endogenous, OT-I T cells) (receptor, UniProt P16297 27-539, looked up)
chain: AVKNCSHLECFYNSRANVSCMWSHEEALNVTTCHVHAKSNLRHWNKTCELTLVRQASWACNLILGSFPESQSLTSVDLLDINVVCWEEKGWRRVKTCDFHPFDNLRLVAPHSLQVLHIDTQRCNISWKVSQVSHYIEPYLEFEARRRLLGHSWEDASVLSLKQRQQWLFLEMLIPSTSYEVQVRVKAQRNNTGTWSPWSQPLTFRTRPADPMKEILPMSWLRYLLLVLGCFSGFFSCVYILVKCRYLGPWLKTVLKCHIPDPSEFFSQLSSQHGGDLQKWLSSPVPLSFFSPSGPAPEISPLEVLDGDSKAVQLLLLQKDSAPLPSPSGHSQASCFTNQGYFFFHLPNALEIESCQVYFTYDPCVEEEVEEDGSRLPEGSPHPPLLPLAGEQDDYCAFPPRDDLLLFSPSLSTPNTAYGGSRAPEERSPLSLHEGLPSLASRDLMGLQRPLERMPEGDGEGLSANSSGEQASVPEGNLHGQDQDRGQGPILTLNTDAYLSLQELQAQDSVHLI
notes: whole, on cells; Endogenous, probed by immunoblot in Susd2 precipitates; also called CD122

- binding result (V5-tagged mouse Susd2): no binding
B2: mouse IL-15Rα (endogenous, OT-I T cells) (receptor, UniProt Q60819 33-263, looked up)
chain: GTTCPPPVSIEHADIRVKNYSVNSRERYVCNSGFKRKAGTSTLIECVINKNTNVAHWTTPSLKCIRDPSLAHYSPVPTVVTPKVTSQPESPSPSAKEPEAFSPKSDTAMTTETAIMPGSRLTPSQTTSAGTTGTGSHKSSRAPSLAATMTLEPTASTSLRITEISPHSSKMTKVAISTSVLLVGAGVVMAFLAWYIKSRQPSQPCRVEVETMETVPMTVRASSKEDEDTGA
notes: whole, on cells; Endogenous, probed by immunoblot in Susd2 precipitates

- binding result [1]: binds
B3: endogenous IL-2Rα in human Jurkat T cells (receptor, UniProt P01589 22-272, looked up)
chain: ELCDDDPPEIPHATFKAMAYKEGTMLNCECKRGFRRIKSGSLYMLCTGNSSHSSWDNQCQCTSSATRNTTKQVTPQPEEQKERKTTEMQSPMQPVDQASLPGHCREPPPWENEATERIYHFVVGQMVYYQCVQGYRALHRGPAESVCKMTHGKTRWTQPQLICTGEMETSQFPGEEKPQASPEGRPESETSCLVTTTDFQIQTEMAATMETSIFTTEYQVAVAGCVFLLISVLLLSGLTWQRRQRKSRRTI
notes: whole, on cells; Endogenous protein, pulled down from Jurkat lysate

- binding result (V5-tagged mouse Susd2): no binding
B4: mouse common γ chain (endogenous, OT-I T cells) (receptor, UniProt P34902 23-369, looked up)
chain: WSSKVLMSSANEDIKADLILTSTAPEHLSAPTLPLPEVQCFVFNIEYMNCTWNSSSEPQATNLTLHYRYKVSDNNTFQECSHYLFSKEITSGCQIQKEDIQLYQTFVVQLQDPQKPQRRAVQKLNLQNLVIPRAPENLTLSNLSESQLELRWKSRHIKERCLQYLVQYRSNRDRSWTELIVNHEPRFSLPSVDELKRYTFRVRSRYNPICGSSQQWSKWSQPVHWGSHTVEENPSLFALEAVLIPVGTMGLIITLIFVYCWLERMPPIPPIKNLEDLVTEYQGNFSAWSGVSKGLTESLQPDYSERFCHVSEIPPKGGALGEGPGGSPCSLHSPYWPPPCYSLKPEA
notes: whole, on cells; Endogenous, probed by immunoblot in Susd2 precipitates; also called common 7 chain
